Source: the Human Domainome abundance scans (Beltran et al. 2025)
± gives the uncertainty stated by the source.

B1: POU domain, class 2, transcription factor 2, residues 200 to 269; numbered along this chain, P09086 (parent)
chain: LEELEQFARTFKQRRIKLGFTQGDVGLAMGKLYGNDFSQTTISRFEALNLSFKNMCKLKPLLEKWLNDAE

Variants of: B1
Test: abundance fitness (aPCA) (normalised: wild type 0, dead -1); higher = more abundant; growth selection in yeast, the domain comes from the species named
Settings: Homo sapiens
Work on LEELVQFARTFKQRRIKLGFTQGDVGLAMGKLYGNDFSQTTISRFEALNLSFKNMCKLKPLLEKWLNDAE [E5V] yielded an abundance fitness of -0.052 ± 0.036. LEELEQFYRTFKQRRIKLGFTQGDVGLAMGKLYGNDFSQTTISRFEALNLSFKNMCKLKPLLEKWLNDAE [A8Y] gave an abundance fitness of -0.955 ± 0.23. Work on LEELEQFVRTFKQRRIKLGFTQGDVGLAMGKLYGNDFSQTTISRFEALNLSFKNMCKLKPLLEKWLNDAE [A8V] yielded an abundance fitness of -0.057 ± 0.029. For LEELEQFQRTFKQRRIKLGFTQGDVGLAMGKLYGNDFSQTTISRFEALNLSFKNMCKLKPLLEKWLNDAE [A8Q], the abundance fitness was -0.63 ± 0.1. With LEELEQFARTFKQRRIKLGFTQGDVGLAMGKLYGNDFSQTTISRFEALNLSFKNMCKPKPLLEKWLNDAE [L58P] the abundance fitness was -0.747 ± 0.12. LEELEQFARTFKQRRIKLGFTQGDVGLAMGKLYGNDFSQTTISRFEALNLSFKNMCKNKPLLEKWLNDAE [L58N] gave an abundance fitness of -0.227 ± 0.11. LEELEQFARTFKQRRIKLGFTQGDVGLAMGKLYGNDFSQTTISRFEALNLSFKNMCKFKPLLEKWLNDAE [L58F] showed an abundance fitness of 0.005 ± 0.095. In the case of LEELEQFARTFKQRRIKLGFTQGDVGLAMGKLYDNDFSQTTISRFEALNLSFKNMCKLKPLLEKWLNDAE [G34D], the abundance fitness is reported as -0.065 ± 0.088. Work on LEELEQFARTFKQRRIKLGFTQGDVGLAMGKLYGNDFSQTTISRFEALNLSFKNHCKLKPLLEKWLNDAE [M55H] yielded an abundance fitness of -0.164 ± 0.075. With LEELEQFARTFKQRRIKLGFTQGDVGLAMGKLYGNDFSQTTISRFEALNLSFKNECKLKPLLEKWLNDAE [M55E] the abundance fitness was -0.512 ± 0.049. LEELEQFARTFKQRRIILGFTQGDVGLAMGKLYGNDFSQTTISRFEALNLSFKNMCKLKPLLEKWLNDAE [K17I] gave an abundance fitness of -0.072 ± 0.087. LEELEQFARTFKQRRIMLGFTQGDVGLAMGKLYGNDFSQTTISRFEALNLSFKNMCKLKPLLEKWLNDAE [K17M] showed an abundance fitness of 0.001 ± 0.07. In the case of LEELEQFARTFKQRRIKLGFTQGDVGLAMGKLYGNDFSQTTIERFEALNLSFKNMCKLKPLLEKWLNDAE [S43E], the abundance fitness is reported as -0.018 ± 0.05. With LEELEQFARTFKQRRIKLGFTQGDVGLAMGKLYGNDFSQTTISRFEALNLSFKNMCKLKPLLEKWLYDAE [N67Y] the abundance fitness was -0.497 ± 0.38. With LEELEQFARTFKQRRIKLGFTQGDVGLAMGKLYGNDFSQTTISRFEALNFSFKNMCKLKPLLEKWLNDAE [L50F] the abundance fitness was -0.064 ± 0.065. For LEELEQFARKFKQRRIKLGFTQGDVGLAMGKLYGNDFSQTTISRFEALNLSFKNMCKLKPLLEKWLNDAE [T10K], the abundance fitness was -0.024 ± 0.023. Variant LEELEQFARTFKQRRIKLGFTQGDVGLAMGKLYGNDFSQTGISRFEALNLSFKNMCKLKPLLEKWLNDAE [T41G] has an abundance fitness of -0.193 ± 0.039. For LEELEQFARTFKQRRIKLGFTQGDVGLAMGKLYGNDFSQTQISRFEALNLSFKNMCKLKPLLEKWLNDAE [T41Q], the abundance fitness was -0.061 ± 0.047. LEELEQFARTFKQRRIKLGFTQGDVGLKMGKLYGNDFSQTTISRFEALNLSFKNMCKLKPLLEKWLNDAE [A28K] gave an abundance fitness of -0.021 ± 0.096. For LEELEQFARTFKQRRIKLGFTQGDVGLAMGKLYGNDFSQTTISRFEALNLWFKNMCKLKPLLEKWLNDAE [S51W], the abundance fitness was -0.907 ± 0.091. For LEELEQFARTFKQRRIKLGTTQGDVGLAMGKLYGNDFSQTTISRFEALNLSFKNMCKLKPLLEKWLNDAE [F20T], the abundance fitness was -0.317 ± 0.061. Variant LEELEQFARTFKQRRIKLGFTQGDVGLAMGKLYGNDFSQTTISRCEALNLSFKNMCKLKPLLEKWLNDAE [F45C] has an abundance fitness of -0.752 ± 0.22. Work on LEELEQFARTFKQRRIKLGFTQGDVGLAMGKLYGNDFSQTTISRKEALNLSFKNMCKLKPLLEKWLNDAE [F45K] yielded an abundance fitness of -0.906 ± 0.12. With LEELEQFARTFKTRRIKLGFTQGDVGLAMGKLYGNDFSQTTISRFEALNLSFKNMCKLKPLLEKWLNDAE [Q13T] the abundance fitness was 0.001 ± 0.033. LEELEQFARTFKQRRIKLGFTQGDVGLAMGKLYGNDFSQTTISRFEAYNLSFKNMCKLKPLLEKWLNDAE [L48Y] showed an abundance fitness of -0.329 ± 0.1. Work on LEELEQFARTFKQRRIKLGFTQGDVGLAMGKLYGNDFSQTTISRFEAPNLSFKNMCKLKPLLEKWLNDAE [L48P] yielded an abundance fitness of -0.472 ± 0.072. Variant LEELEQFARTFKQRRIKLGFTQGDVGLAMGKLMGNDFSQTTISRFEALNLSFKNMCKLKPLLEKWLNDAE [Y33M] has an abundance fitness of -0.055 ± 0.076. Work on LEELEQFARTFKQRRIKLGFTQGDVGLAMGKLNGNDFSQTTISRFEALNLSFKNMCKLKPLLEKWLNDAE [Y33N] yielded an abundance fitness of -0.156 ± 0.071. Work on LEELEQFARTFKQRRIKLGFTQGDVGLAMGKLPGNDFSQTTISRFEALNLSFKNMCKLKPLLEKWLNDAE [Y33P] yielded an abundance fitness of -0.068 ± 0.061. For IEELEQFARTFKQRRIKLGFTQGDVGLAMGKLYGNDFSQTTISRFEALNLSFKNMCKLKPLLEKWLNDAE [L1I], the abundance fitness was -0.11 ± 0.46. Variant LEELEQFARTFKQRRIKLGFTQGDVGLAMGKLYGNDFSQTTISRFEALNLSFKNMCKLCPLLEKWLNDAE [K59C] has an abundance fitness of -0.14 ± 0.066. LEELEQFARTFKQRRIKLGFTQGDVGLAMGKLYGNDFSQTTISRFEALNLSFKNMCKLRPLLEKWLNDAE [K59R] showed an abundance fitness of -0.078 ± 0.047. In the case of LEELEQFARTFKQRRIKLGFTQGDVGLAMGKLYGNDFSQTTSSRFEALNLSFKNMCKLKPLLEKWLNDAE [I42S], the abundance fitness is reported as -0.685 ± 0.24. Work on LEELEQFARTFKQRRIKLGFTQGDVGLAMGKLYGNDFSQTTMSRFEALNLSFKNMCKLKPLLEKWLNDAE [I42M] yielded an abundance fitness of -0.122 ± 0.059. Variant LEELEQFARTFKQRRIKLGFTQGDVGLAMGKLYGNDFSQTTFSRFEALNLSFKNMCKLKPLLEKWLNDAE [I42F] has an abundance fitness of -0.375 ± 0.12. LEELEQFARTFKQRRIKLGFTQGDVGLAMGKMYGNDFSQTTISRFEALNLSFKNMCKLKPLLEKWLNDAE [L32M] showed an abundance fitness of -0.021 ± 0.072. LEELEQFARTAKQRRIKLGFTQGDVGLAMGKLYGNDFSQTTISRFEALNLSFKNMCKLKPLLEKWLNDAE [F11A] gave an abundance fitness of -0.151 ± 0.033. Variant LEELEQFARTFKQRRIKLGFTQGDVGLAMGKLYGVDFSQTTISRFEALNLSFKNMCKLKPLLEKWLNDAE [N35V] has an abundance fitness of -0.091 ± 0.047. For LEELEQFARTFKQRRIKLGFTQGDVGLAMGKLYGNDFSQTTISRFEALNLSFKNMCKLKPKLEKWLNDAE [L61K], the abundance fitness was 0.032 ± 0.056.
